Laboratory results published in the nanobody polyreactivity screen of Harvey et al. (2022).

Assay: yeast display, Sf9 membrane polyspecificity reagent, FACS + sequencing; frameworks hold sequencing errors
Procedure, shortened: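 Galactose-induced (36–48 hours) yeast carrying a synthetic nanobody display library were exposed to 10% biotinylated, detergent-solubilized Sf9 membrane reagent at 4 °C for 1 hour. FACS followed streptavidin microbead enrichment, using low and high (top ~1%) gates for expression (anti-HA) and reagent binding (streptavidin). Colony PCR, MiSeq 2 × 250 sequencing and CDR-length filtering followed. Labels for polyreactivity reflect the gate of origin.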

Sequence	polyreactivity (PSR sort gate)
QVQLVESGGGLVQAGGSLRLSCAASGSIFVYNAMGWYRQAPGKEREFVAAITKRVGRTYYADSVKGRFTISRDNAKNTVYLQMNSLKPEDTAVYYCAAVLSYTGGFDYWGQGTQVTVSS	high polyreactivity
QVQLVESGGGLVQAGGSLRLSCAASGSIFVYNAMGWYRQAPGKERELVAAISTSGGRTYYADSVKGRFTISRDNAKNTVYLQMNSLKPEDTAVYYCNALGYWRRVVDGFDYWGQGTQVTVSS	high polyreactivity
QVQLVESGGGLVQAGGSLRLSCAASGSIFVYNAMGWYRQAPGKEREWVAGITLIGGSTYYADSVKGRFTISRDNAKNTVYLQMNSLKPEDTAVYYCNADVAPGIFYGYDSWGQGTQVTVSS	low polyreactivity
QVQLVESGGGLVQAGGSLRLSCAASGSIFVYNAMGWYSPAPGQERELVAAITYSGGRTYYADSVKGRFTISRDNAKNTVYVQMNSLKPEDTAVDFCAADLTSKSSPQGYRYDYWGQGTQVTVSS	low polyreactivity
QVQLVESGGGLVQAGGSLRLSCAASGSIFVYYAMGWYRQAPGKERELGAAISSTGGRTYYADSVKGRFTISRDNAKNTVYLQMNSLKPEDTAVYYCAKTPTVVEFDYWGQGTQVTVAS	low polyreactivity
QVQLVESGGGLVQAGGSLRLSCAASGSIFVYYAMGWYRQAPGKERELVAAINSSGGRTYYADSVKGRFTISRDNAKNTVYLQMNSLKPEETAVYYCAAVYRYWTSYNGRNYWGQGTQVTVSS	high polyreactivity
QVQLVESGGGLVQAGGSLRLSCAASGSIFVYYAMGWYRQAPGKERELVATISSDVSTYYSDSVKGRFTISRDNAKNTVYVQMNRLKPEDTAVDYCAATVSFDWAYSFSLDLEDDYWGQGTQVTVSS	low polyreactivity
QVQLVESGGGLVQAGGSLRLSCAASGSIFVYYAMGWYRQAPGNERELVAAISKTGGRTYYADSVKGRFTISRDNAKNTVYLQMNSLKPEDSAVYYCAARYTIRYKRYDYWGQGTQVTVSS	high polyreactivity
QVQLVESGGGLVQAGGSLRLSCAASGSIFWFNAMGWYRQAPGNERELVATIRYSGGSTYYADSVKGRFTISRDNAKNTVYLQMNSLKPEDTAVYYCAAVSRYSRSGYEYWGQGTQVTVSS	high polyreactivity
QVQLVESGGGLVQAGGSLRLSCAASGSIFWGIAMGWYRQAPGTERELVAAISWGGGRTYYADSVKGRFTLSRDNAKNTVYLQMNSLKPEDTAVYYCNTRYPYVVSTGYDYWGQGTQVTVSS	high polyreactivity
QVQLVESGGGLVQAGGSLRLSCAASGSIFWGNAMGCYRQAPGKERELVASISDSGGSTYADSVKGRFTISRDNAKNTVYLQMNSLKPEDTAVYYCAADDWYSAGIRNWYYGGYDYWGQGTQVTVSS	low polyreactivity
QVQLVESGGGLVQAGGSLRLSCAASGSIFWGYAMGWYRQAPGKERELVAAITRGDTTNYADSVKGRFTISRDNAKNTVYLQMNSLKPEDTAVYYCAATPDPPHTYEYWGQGTQVTVSS	low polyreactivity
QVQLVESGGGLVQAGGSLRLSCAASGSIFWGYAMGWYRQAPGKERELVATIPNRGGSTYYADSVKARFTISRDNAKNTVYLQMNSLKPEDTAVYYCAVERDYWTKASYYWGRGTQVTVSS	low polyreactivity
QVQLVESGGGLVQAGGSLRLSCAASGSIFWINAMGGYRQAPGKEREVVADIDVSGGSTYYADSVKGRFTISRDNAKNTVYLQMNSLKPEDTAVYYCAADAWVRTYHYGYWGQGTQVTVSS	low polyreactivity
QVQLVESGGGLVQAGGSLRLSCAASGSIFWKYAMGWYRQAPGKERELVAAISWSDGSTYYADSVKGRFTISRDNAKNTVYLQMNSLKPEVTAVYYCNTPPQWLGRYITITFDYWGQGTQVTVSS	low polyreactivity
QVQLVESGGGLVQAGGSLRLSCAASGSIFWLYAMGWYRQAPGKERELVAAINWSTGRTYYADSVKGRFTISRDNAKNTVYLQMNSLKPEDTAVYYCAADLNWWFDYSSPDEMYYWGQGTQVNVSS	high polyreactivity
QVQLVESGGGLVQAGGSLRLSCAASGSIFWLYAMGWYRQAPGKERELVASITGGGSTNYADSVKGRFTISRDNAKNTVYLQMNSLKPEDTAVYYCAKRYYRPGRKRTGLDYWGQGTQVTVSS	high polyreactivity
QVQLVESGGGLVQAGGSLRLSCAASGSIFWPNTMGWYRQAPGKERELVATISSGGDTSYADSVKGRFTISRDNAKNTVYLQMNSLKPEDTAVYYCAKRITVDDVHPRAQTYNYWGQGTQVTVSS	low polyreactivity
QVQLVESGGGLVQAGGSLRLSCAASGSIFWPYAMGWYRQAPGKEREFVDAITWSGGSTYYADSVKGRFTISRDNAKNTVYLQMNSLKPEDTAVYYCAAVPYTRWKGADGDYWGQGTQVTVSS	high polyreactivity
QVQLVESGGGLVQAGGSLRLSCAASGSIFWPYTMGWYRQAPGKEWELVAAITSTDSTDYADSVKGRFTISRDNAKNTVYLQMNSLKPEDTAVYYCNADYQSRTGSVIYTAHPYDYWGQGTQVTVSS	low polyreactivity

Sequence	polyreactivity (PSR sort gate)
QVQLVESGGGLVQAGGSLRLSCAASGSIFWRNAIGWYRQAPRKERELVAAISRVGSTNYADSVKGRFTISRDNAKNTVYLQMTSLKPEDTAVYYCAKDSIWRVYEYDYWGQGTQVTVSS	low polyreactivity
QVQLVESGGGLVQAGGSLRLSCAASGSIFWRNAMGWYRQAQGKEREFVATITWSGDSTYYADSVKGRFTISRDNAKNTVYLQMNSLKPEDTAVYYCATDWRNWGYDSWGQGTQVTVSS	low polyreactivity
QVQLVESGGGLVQAGGSLRLSCAASGSIFWRYAMGWDRQAPGKERELVATITSRGGSTYYADSVKGRFTISRDNAKNTVYLQMNSLKPEDTAVYYCAATGLPGYYAYDYWGQGTQVTVSS	low polyreactivity
QVQLVESGGGLVQAGGSLRLSCAASGSIFWRYAMGWYRQAPGKERELVAAISSSGSTYYADSVKGRFTISRDNAKNTVYLQMNSLKPEDTAVYYCAKRASALLRHSYDYWGQGTQVSVSS	low polyreactivity
QVQLVESGGGLVQAGGSLRLSCAASGSIFWRYDMGWLDRRLGKKGSSLPLLLVLVTTRTTQTPVKGRFTISRDNAKNTVYLQMNSLKPEDTAVYYCAADLRASGLKYEYWGQGTQVTVSS	low polyreactivity
QVQLVESGGGLVQAGGSLRLSCAASGSIFWRYTMGWYRQAPGKERELVAAISTRGGSTYYADSVKGRFTISRDNAKNTVYLQMNSLKPEDTAVYYCNAVEGSRLPYDYWGQGTQVTVSS	low polyreactivity
QVQLVESGGGLVQAGGSLRLSCAASGSIFWSNAMGWYRQEPVKEREMVARISTSGGRTYYADSVKGRFTISRDNAKNTVYLQMNSLKPEDTAVYYCADDPYRWYYSTFYYWGQGTQVTVSS	high polyreactivity
QVQLVESGGGLVQAGGSLRLSCAASGSIFWSYAMGWYRQAPGKEREFVAAISGGDGTTYYADSVKGRFTISRDNAKNTVYLQMNSLKPEDTAVYYCNAVGYWYGSLEYDYWGQGTQVTVSS	low polyreactivity
QVQLVESGGGLVQAGGSLRLSCAASGSIFWSYAMGWYRQAPGKERELVAAITYSGTSTYYADSVKGRFTISRDNAKNTVYLQMNSLKPEDTAVYYCNADAYVYFDDGDYWGQGTQVTVSS	low polyreactivity
QVQLVESGGGLVQAGGSLRLSCAASGSIFWTNAMGWYRQAPGKERELVAAIRVSTGSTYYADSVKGRFTISRDNAKNTVYLQMNSLKPEDTAVYYCAARTYGWGYDYWGQGTQVTVSS	low polyreactivity
QVQLVESGGGLVQAGGSLRLSCAASGSIFWWYGMGWDRQAPGKERELVADITSGGGTYYADSVKGRFTISRDNAKNTVYLQLNSLKPEDTAVYYCAADVRAYRFDYYFDYWGQGTQVTVSS	low polyreactivity
QVQLVESGGGLVQAGGSLRLSCAASGSIFWYNTMGWYRQAPGKERELVAAISYRGGRTYYADSVKGRFTISRDNAKNTVYLQMNSLKPEDTAVYYCNAPRYLGGGQDALGDYWGQGTQVTVSS	high polyreactivity
QVQLVESGGGLVQAGGSLRLSCAASGSIFWYNTMGWYRQAPGKERELVAAITFSGGSTYYADSVKERFTISRDNAKNTVYLQMNSLKPEDTAVYYCAAVFYSAVGYYYWGQGTQVTVSS	low polyreactivity
QVQLVESGGGLVQAGGSLRLSCAASGSIFYAYAMGWYRQAPGKERELVATISRGVNTNYADSVKGRFTISRDNAKNTVYLQMNSLKPEDTAVYYCNARLRYGHGYGYWGQGTQVTVSS	low polyreactivity
QVQLVESGGGLVQAGGSLRLSCAASGSIFYDNAMGWSRQAPGKERELVASIRWSGDSTYYADSVKGRFTISRDNAKNTVYLQMNSLKPEDTAVYYCAADPVEPYFTAIAYDYWGQGTQVTVSS	low polyreactivity
QVQLVESGGGLVQAGGSLRLSCAASGSIFYDYAMGCYRQAPGKERELVDRISSGGSTYYADSVKGRFTISRDNAKNTVYLQMNSLKPEDSAVYYCNAGVEFAASLYYSDNYDYWGQGTQVTVSS	low polyreactivity
QVQLVESGGGLVQAGGSLRLSCAASGSIFYDYAMGWYRQAPGKERELVAAITASGGSTYYADSVKGRFTISRDNAKNTVYLQMNSLKPEDTAVYYCAAESESYEQVGEMDSWGQGTQVTVSS	low polyreactivity
QVQLVESGGGLVQAGGSLRLSCAASGSIFYDYTMGWYRQAPGKERELVAAINSGGSTNYADSVKGRFTISRDNAKNTVYLQMNSLKPEDTAVYYCAAVRYNSRVSTTPSEMYYLGQGTQVTVSS	low polyreactivity
QVQLVESGGGLVQAGGSLRLSCAASGSIFYENAMGWYRQAPGKERELVAAIRDSGGSTYYADSVKGRFTISRDNAKNTVYLQMNSLKPEDTAVYYCNAVPVYYDYDYWGQGTQVTVSS	low polyreactivity
QVQLVESGGGLVQAGGSLRLSCAASGSIFYFNAMGWYRQAPGKERELVAAISSGGGTNYADSVKGRFTISRDNAKNTVYLQMNSLKPEDTAVYYCAAAVSLFYPTWYYFSYDYWGQGTQVTVSS	low polyreactivity
